Laboratory results: the supplement of paper PMC12042874
± gives the uncertainty stated by the source.

Assay: amyloid nucleation score (Sup35N fusion, yeast selection) (log enrichment); library NNK3; higher = more nucleation; inactive = no reads after selection
In short: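 Three technical output replicates were used for random libraries. Psi-negative yeast expressing peptides of 20 random codons fused to Sup35N were induced with 100 μM copper sulfate for 24 hours and grown 7 days at 30°C on medium lacking adenine and uracil, and input and output plasmid inserts were Illumina-sequenced, excluding sequences with under 100 input reads. The nucleation score is the DiMSum log enrichment of output over input reads, centred on the mode score of non-aggregating sequences.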

| Substance | amyloid nucleation score |
| --- | --- |
| GADDVTNRRTVVVSTQALCL | inactive |
| TFSYGSFLRSYLLMC | inactive |
| LKLMKNDCRFSNGNLVVVRV | inactive |
| SISLITFCRMCDAWLWRFGV | inactive |
| TYTSESWVHLVKYGSLNELE | inactive |
| NCVPSCSAAFKSISRQPHGS | 0.115 ± 0.88 |
| FLIPQGERSVLCMGCYFLYA | 1.85 ± 0.098 |
| SYNDSLCLDVQTIYPLHSPS | inactive |
| LYMDYLQNVNLYGMFI | inactive |
| GSHELHWSVGYQESVLLRYH | inactive |
| RTLFYFLDDSQFVLV | inactive |
| RCLEERH | inactive |
| FLVGPPNL | inactive |
| VRSRMSNWFNHPTVFDRLWA | 0.547 ± 0.2 |
| TAIYIDRNECSLKVYRIKDK | 0.612 ± 0.44 |
| NWVQSSMNQ | inactive |
| NTDFYVVVDRIMFRLLHGFK | inactive |
| RRKRSQSE | inactive |
| RSWQEMFCEWSSALDWDWSV | inactive |
| ELPLSSCNRCGECYGLAIVA | inactive |
| AFMVKYSSVLYVCNLALGRA | inactive |
| TDGYFYDRSSVERSL | inactive |
| IIQALVF | inactive |
| GFSLKGLNSNDTRSLSHKLG | inactive |

| Substance | amyloid nucleation score |
| --- | --- |
| TGSVVYLKRDVPAIFKFLLV | inactive |
| HVIHGCNSIFYSVS | inactive |
| CISTVIEKMLVIYEKNRFQH | 0.529 ± 0.46 |
| HEISSICTRFWANSLIRMSC | inactive |
| NRPLNIAAVLY | inactive |
| NWNYLISMRGFTEYGESFWW | -0.18 ± 0.61 |
| CYRWL | inactive |
| SRVHEVLNFCTY | inactive |
| LNWLC | 1.07 ± 0.086 |
| CQDHVKNITAIPHSSGMYMS | inactive |
| DSSKVGFSALVNVSTIA | inactive |
| LCLSTIV | inactive |
| WCAISICQLLKRQWYLGSYV | inactive |
| SRITYEGQSRGCTLGNGLKR | inactive |
| PCSGDSLLVSNTKNRSL | inactive |
| RVKYL | inactive |
| CMLAQRRVTPRRYRLVSSTI | inactive |
| MSPWSRMF | inactive |
| SAFCCRSMSGVEFLRAFVSK | inactive |
| YCSCNEGGLDPSLTMTL | inactive |
| FDLETSLL | inactive |
| SDAVSIWGQKSNISSICNDS | inactive |
| IGIINMSLN | 1.19 ± 0.11 |
| GHLMGETTY | inactive |

| Substance | amyloid nucleation score |
| --- | --- |
| WFPSKYIATMFCLQVFLVKP | inactive |
| RGVAVR | 1.89 ± 0.077 |
| NGLVQSMFVIRSLAQRNERR | inactive |
| SIMFGNLSMAKVKYMNFL | 0.862 ± 0.12 |
| RWLPMSNVAGGQKRKMLASL | inactive |
| NCTDLLRMLYGMRRGINSNC | inactive |
| FRKETNSSHGLMKWAKEQ | inactive |
| TYYTSRYL | inactive |
| NRFQLVSRYAWHSWVK | inactive |
| GLAQTSLFI | inactive |
| IVDAIILWCSKILIWVGIGQ | inactive |
| RIHVSKLLTWTGSSLVVWSA | inactive |
| CYEGR | inactive |
| VLRLFDTNPHDSREVAYFYF | inactive |
| ILIRHDAMNRYPQC | inactive |
| QGLPVSVSFVGEIYLLLF | 2.32 ± 0.053 |
| MGSGGYNIITDGQSFFSTMA | inactive |
| ILLFYLSLKRCSLQARGLDS | -0.659 ± 1.8 |
| LPLFRISAPMVMYVLLYVPW | inactive |
| MELCTLMCHYVVYSVVNWTY | inactive |
| LNFVVYMIGGFCCHHFNVLF | 1.3 ± 0.1 |
| HWVLQYRCSARKRSHLRYSM | inactive |
| FNVFLSLATGISDGYYMLTA | inactive |
| PWLSVSRVVVGRSLDGNNCP | inactive |

| Substance | amyloid nucleation score |
| --- | --- |
| LSRFQVGFHQIDIMRGDVWK | inactive |
| CCHSITFLVNLGMRERKNKV | inactive |
| IFFQCNVAMQKDSDAKGTYV | 1.84 ± 0.067 |
| SGSRLGHCSSLTMKSSLSVD | 1.06 ± 0.17 |
| RNKSSNFREHPVTSRITCRS | inactive |
| SRLMWSGNLWRILVWCFTSN | inactive |
| CCGMYYNSMASNVWSER | 2.17 ± 0.084 |
| NLWVADWIEHHYPSRSSIFA | inactive |
| TCNKLIVRLCDAHKERA | 0.745 ± 0.13 |
| CTLMIFGCN | inactive |
| HNASGCWWDSALPITFRRLG | inactive |
| HMCCKYVPRNKSGSLVFKRG | inactive |
| YSGGKGSGRELRYTLLVRGT | inactive |
| WTEGST | inactive |
| SLPNA | inactive |
| NIRIDMMWSLSCHKLG | inactive |
| ETSVTAHHLGIGVLLRFQQ | inactive |
| SVCWVFYCFFSLWCRLSESR | inactive |
| HKDMVNASLPGITSARWLGR | inactive |
| GTSMSRPDIVTDKVMPFLRR | inactive |
| IGCWTSYSWNRSRKFYMQQE | 0.799 ± 0.17 |
| FASRIWSSTITSCHLLSGSL | inactive |
| QGVVV | inactive |
| DYKKVGDSLFTVFVFRFINV | inactive |

| Substance | amyloid nucleation score |
| --- | --- |
| ASAYGSSLYSRFTVEYNSII | 0.223 ± 0.38 |
| WWVIVGSAYVFDISIHFSSP | 1.24 ± 0.096 |
| GPFARNS | inactive |
| QGSHRGMKITGISWTVLGYW | inactive |
| PGRTSYMKVPYCKWSEWPAK | inactive |
| FSITVFFVNIAATSKPYLDK | inactive |
| SLGKPSHREFYDFVVAAKTT | inactive |
| CRMAKRLAVRTSLRRMFSES | inactive |
| MLMVLRGRSRDNNVQSLLFA | -0.292 ± 1.2 |
| GFAMVLSWLKSGFPISRDLR | inactive |
| KLDLKCIIRHWV | inactive |
| CNSVRLGFQWAKYVLWRHRG | inactive |
| TCSLFFSYPYIGRQHGCGRY | 0.444 ± 0.46 |
| VFWYKYVFSCNIIQGLLRMK | inactive |
| LEGQMTVRRDFTRFDW | inactive |
| PTGMPYNLTWFFWHATMPLL | -0.255 ± 0.33 |
| FILSAGSLHQLGRLVES | inactive |
| TEMMTFGFSGVMFVRVMFWL | inactive |
| FVGNGWSNFSL | inactive |
| SHVSQMWSGYAGNKEEPTAW | 0.928 ± 0.19 |
| RSPTVL | inactive |
